In paper PMC8355190 one finds stoichiometry N data, which are given here for 1 substance.

The target of this assay is PKM2 (human (endogenous in H1650)) (UniProt P14618). The assay is described as follows: cross-linking.

PKM2, P14618 1-531 (enzyme; other documents disagree on this pair), sequence (P14618 whole entry): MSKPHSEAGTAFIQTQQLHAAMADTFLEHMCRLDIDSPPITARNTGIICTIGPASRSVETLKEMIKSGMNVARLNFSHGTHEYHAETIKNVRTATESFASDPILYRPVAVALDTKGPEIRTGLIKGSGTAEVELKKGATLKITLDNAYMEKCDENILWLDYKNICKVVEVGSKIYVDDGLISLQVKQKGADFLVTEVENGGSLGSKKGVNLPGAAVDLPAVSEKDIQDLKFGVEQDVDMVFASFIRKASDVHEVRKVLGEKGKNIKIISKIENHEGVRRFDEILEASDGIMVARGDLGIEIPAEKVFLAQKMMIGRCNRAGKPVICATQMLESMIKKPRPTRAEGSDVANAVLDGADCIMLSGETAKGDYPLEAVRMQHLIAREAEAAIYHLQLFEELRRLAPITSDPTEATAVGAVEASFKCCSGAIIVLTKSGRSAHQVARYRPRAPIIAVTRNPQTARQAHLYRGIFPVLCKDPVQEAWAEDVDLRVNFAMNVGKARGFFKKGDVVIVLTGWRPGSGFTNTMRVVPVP

For the substance “PKM2, P14618 1-531 (enzyme; other documents disagree on this pair)”, the stoichiometry N turned out to be 2.

A word on the stoichiometry N: it is the number of molecules, sites or subunits per partner or assembly.
